Data taken from patent publication US20210147486A1 (VIB VZW, published 2021).
Residue numbers refer to the chain shown, from its start. In names and notes the source's numbering stands. Where no end group is shown, it is not given here. The star is where a group is joined. NH(CH2)5NH2 = NCCCCCN*

Legend:
[1] = target: T1, E. coli CsgG (wild type) fused C-terminally to a Strep-II tag (Escherichia coli, UniProt P0AEA2 16-277, N-terminal Cys of mature CsgG lipidated (N-terminal lipidation of CsgG)); test: co-expression, Strep affinity purification, anti-His dot blot
T1 construct: Nonameric pore; dimers of nonamers (18-mer) also seen; also called CsgG-Strep; CsgG pore; not shown: C-terminal Strep-II tag
T1 sequence: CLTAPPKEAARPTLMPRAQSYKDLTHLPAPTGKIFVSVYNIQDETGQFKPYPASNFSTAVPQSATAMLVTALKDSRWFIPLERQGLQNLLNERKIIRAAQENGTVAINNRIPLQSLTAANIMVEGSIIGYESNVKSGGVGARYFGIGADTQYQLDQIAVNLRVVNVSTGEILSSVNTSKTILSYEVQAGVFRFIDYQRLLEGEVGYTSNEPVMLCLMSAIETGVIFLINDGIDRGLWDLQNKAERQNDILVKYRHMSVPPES

[2] = target: T2, CsgG Y51A/N55V/F56Q/N91R/K94Q/R97W-del(V105-I107) pore containing the C terminal strep tag (Escherichia coli, UniProt P0AEA2 16-277); test: reconstitution of purified pore with synthetic peptide; electrophysiology
T2 construct: also called Y51A/F56Q/N55V/N91R/K94Q/R97W-del(V105-I107); not shown: C-terminal Strep tag
T2 chain: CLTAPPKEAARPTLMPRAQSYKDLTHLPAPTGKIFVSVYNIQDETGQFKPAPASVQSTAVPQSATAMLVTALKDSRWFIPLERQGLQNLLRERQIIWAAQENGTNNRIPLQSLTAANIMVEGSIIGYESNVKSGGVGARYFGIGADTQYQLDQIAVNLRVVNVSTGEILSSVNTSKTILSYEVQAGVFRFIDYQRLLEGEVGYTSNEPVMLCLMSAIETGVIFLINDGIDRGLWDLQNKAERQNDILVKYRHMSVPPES

[3] = target: T1, E. coli CsgG (wild type) fused …; test: in vitro reconstitution 2:1 peptide:CsgG, StrepTactin pull down, native PAGE fluorescence
[4] = target: T3, CsgG Y51A/F56Q/K94Q/R97W/R192D-del(V105-I107), Strep-tagged (Escherichia coli, UniProt P0AEA2 16-277); test: as above
T3 construct: also called CsgG mutant with altered constriction; not shown: C-terminal Strep tag
T3 chain: T2 chain with V55N, R91N, R189D

[5] = target: T1, E. coli CsgG (wild type) fused …; test: co-expression in E. coli; His then Strep tandem affinity purification; SDS-PAGE
[6] = target: T4, CsgG Y51A/F56A/N91R/K94Q/R97W-del(V105-I107) pore containing the C terminal strep tag (Escherichia coli, UniProt P0AEA2 16-277); test: panel D; complex made by incubating pore and peptide; DNA translocation current recording
T4 construct: not shown: C-terminal Strep tag
T4 chain: T2 chain with V55N, Q56A

[7] = target: T5, CsgG Y51S/N55V/F56Q/N91R/K94Q/R97W-del(V105-I107) pore containing the C terminal strep tag (Escherichia coli, UniProt P0AEA2 16-277); test: panel F; complex made by incubating pore and peptide; DNA translocation current recording
T5 construct: not shown: C-terminal Strep tag
T5 chain: T2 chain with A51S

[8] = target: T2, CsgG …; test: complex made by incubating pore and peptide; DNA translocation current recording
[9] = target: T6, CsgG Y51A/F56I/N91R/K94Q/R97W-del(V105-I107) pore containing the C terminal strep tag (Escherichia coli, UniProt P0AEA2 16-277); test: panel E; complex made by incubating pore and peptide; DNA translocation current recording
T6 construct: F561 read as F56I; also called Y51A/F561/N91R/K94Q/R97W-del(V105-I107) (so in the source); not shown: C-terminal Strep tag
T6 chain: T2 chain with V55N, Q56I

[10] = target: T7, CsgG Y51A/N55I/F56Q/N91R/K94Q/R97W-del(V105-I107) pore containing the C terminal strep tag (Escherichia coli, UniProt P0AEA2 16-277); test: panel C; complex made by incubating pore and peptide; DNA translocation current recording
T7 construct: N551 read as N55I; also called Y51A/N551/F56Q/N91R/K94Q/R97W-del(V105-I107) (so in the source); not shown: C-terminal Strep tag
T7 chain: T2 chain with V55I

[11] = target: T8, CsgG Y51T/N55V/F56Q/N91R/K94Q/R97W-del(V105-I107) pore containing the C terminal strep tag (Escherichia coli, UniProt P0AEA2 16-277); test: panel B; complex made by incubating pore and peptide; DNA translocation current recording
T8 construct: not shown: C-terminal Strep tag
T8 chain: T2 chain with A51T

[12] = target: T9, CsgG Y51A/F56Q/N91R/K94Q/R97W-del(V105-I107) pore containing the C terminal strep tag (Escherichia coli, UniProt P0AEA2 16-277); test: co-expression, purification, TEV cleavage; DNA translocation current recording
T9 construct: not shown: C-terminal Strep tag
T9 chain: T2 chain with V55N

[13] = target: T2, CsgG …; test: reconstitution of purified pore with synthetic peptide; SDS-PAGE after heating

B1: CsgF 20:64 fragment with C-terminal 6xHis (from pNA100) (peptide)
peptide: GTMTFQFRNPNFGGNPNNGAFLLNSAQAQNSYKDPSYNDDFGIETHHHHHH
notes: also called CsgF 1-64; CsgF fragment 1-64
[1]
  binding result: binds

## GTMTFQFRNPNFGGNPNNGAFLLNSAQAQ [CsgF-(1-29) synthetic peptide]
[2]
  binding result: binds

B2: Alexa 594-labelled CsgF peptide corresponding to the first 34 residues of mature CsgF (peptide)
peptide: GTMTFQFRNPNFGGNPNNGAFLLNSAQAQNSYKD-{NH(CH2)5NH2-Alexa594}
notes: Synthetic peptide; also called CsgF N-terminal peptide; FCP
[3]
  binding result: binds
[4]
  binding result: binds

B3: E. coli CsgF (mature) with a C-terminal 6x histidine tag (other)
chain: GTMTFQFRNPNFGGNPNNGAFLLNSAQAQNSYKDPSYNDDFGIETPSALDNFTQAIQSQILGGLLSNINTGKPGRMVTNDYIVDIANRDGQLQLNVTDRKTGQTSTIQVSGLQNNSTDFHHHHHH
notes: a start Met is not mentioned; 9:9 stoichiometry with CsgG in the cryoEM structure; also called CsgF-His
[5]
  binding result: binds

## GTMTFQFRNPNFGGNPNNGAFLLNSAQAQN [CsgF-(1-30) synthetic peptide]
[2]
  binding result: binds

## GTMTFQFRNPNFGGNPSNGAFLLNSAQAQNSYKDP (also called CsgF-N175-(1-35)) [CsgF-N17S-(1-35) peptide]
[6]
  binding result: binds
[7]
  binding result: binds
[8]
  binding result: binds
[9]
  binding result: binds
[10]
  binding result: binds
[11]
  binding result: binds

## GTMTFQFRNPNFGGNPVNGAFLLNSAQAQNSYKDP [CsgF-N17V-(1-35) peptide]
[8]
  binding result: binds

B4: CsgF truncated at position 35 by TEV cleavage, with ENLYFQ left at the C-terminus (peptide)
peptide: GTMTFQFRNPNFGGNPNNGAFLLNSAQAQNSYKDPENLYFQ
notes: The text calls it 42 amino acids long; 35 + 6 gives 41; also called CsgF truncated protein
[12]
  binding result: binds

## GTMTFQFRNPNFGGNPSNGAFLLNSAQAQNSYKDPENLYFQ [CsgF N17S truncated at position 35 by TEV cleavage, with ENLYFQ left at the C-terminus]
[12]
  binding result: binds

## GTMTFQFRNPNFGGNPNNGAFLLNSAQAQNSYKDPSYNDDFGIET [CsgF-(1-45) synthetic peptide]
[13]
  binding result: binds
